Numbering of substitutions follows the chain as printed. In names and notes the source's numbering stands.
B1: A156G (protein)
chain: MQLRNPELHLGCALALRFLALVSWDIPGARALDNGLARTPTMGWLHWERFMCNLDCQEEPDSCISEKLFMEMAELMVSEGWKDAGYEYLCIDDCWMAPQRDSEGRLQADPQRFPHGIRQLANYVHSKGLKLGIYADVGNKTCAGFPGSFGYYDIDGQTFADWGVDLLKFDGCYCDSLENLADGYKHMSLALNRTGRSIVYSCEWPLYMWPFQKPNYTEIRQYCNHWRNFADIDDSWKSIKSILDWTSFNQERIVDVAGPGGWNDPDMLVIGNFGLSWNQQVTQMALWAIMAAPLFMSNDLRHISPQAKALLQDKDVIAINQDPLGKQGYQLRQGDNFEVWERPLSGLAWAVAMINRQEIGGPRSYTIAVASLGKGVACNPACFITQLLPVKRKLGFYEWTSRLRSHINPTGTVLLQLENTMQMSLKDLL
B2: Q157E (protein)
chain: B1 chain with G156A, Q157E
B3: Q157K (protein)
chain: B1 chain with G156A, Q157K
B4: Q157L (protein)
chain: B1 chain with G156A, Q157L
B5: Q157P (protein)
chain: B1 chain with G156A, Q157P
B6: T158A (protein)
chain: B1 chain with G156A, T158A
B7: T158I (protein)
chain: B1 chain with G156A, T158I
B8: T158N (protein)
chain: B1 chain with G156A, T158N
B9: T158S (protein)
chain: B1 chain with G156A, T158S
B10: F159I (protein)
chain: B1 chain with G156A, F159I
B11: F159L (protein)
chain: B1 chain with G156A, F159L
B12: F159V (protein)
chain: B1 chain with G156A, F159V
B13: F159Y (protein)
chain: B1 chain with G156A, F159Y
B14: A160G (protein)
chain: B1 chain with G156A, A160G
B15: A160S (protein)
chain: B1 chain with G156A, A160S
B16: A160T (protein)
chain: B1 chain with G156A, A160T
B17: A160V (protein)
chain: B1 chain with G156A, A160V
B18: D161H (protein)
chain: B1 chain with G156A, D161H
B19: D161N (protein)
chain: B1 chain with G156A, D161N
B20: D161V (protein)
chain: B1 chain with G156A, D161V
B21: D161Y (protein)
chain: B1 chain with G156A, D161Y

The molecules below were run on mutant form of α-Gal A expressed in HEK-293 cells (assay: HEK assay (GLP HEK / Migalastat Amenability Assay): α-Gal A activity in lysates of transiently transfected HEK-293 cells incubated with or without 10 μM migalastat). Conditions: 10 μM migalastat versus baseline.
Type: cell-based, human
Procedure, shortened: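 HEK-293 cells transiently transfected with mutant α-Gal A and incubated with or without 10 μM migalastat; lysate activity given as nmol free 4-MU released per mg protein per hour. Values are mean±SEM.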

Compared with B1, B2 is higher in “Absolute increase (% WT)” value: 16.9 % WT for the first, 24.1 % WT for the second.

Going from B3 to B4, the “Absolute increase (% WT)” value rises from 55.6 % WT to 60.2 % WT.

Compared with B5, B6 is lower in “Absolute increase (% WT)” value: 40.6 % WT for the first, 28.7 % WT for the second.

First: B7
Second: B8
The “Absolute increase (% WT)” value of the first is higher: 18.8 % WT for the first, 12.8 % WT for the second.

First: B9
Second: B10
The “Absolute increase (% WT)” value of the first is lower: 19.8 % WT for the first, 24.6 % WT for the second.

Compared with B11, B12 is higher in “Absolute increase (% WT)” value: 28.0 % WT for the first, 29.8 % WT for the second.

Compared with B13, B14 is lower in “Absolute increase (% WT)” value: 22.4 % WT for the first, 19.0 % WT for the second.

Going from B15 to B16, the “Absolute increase (% WT)” value rises from 29.9 % WT to 31.3 % WT.

First: B17
Second: B18
The “Absolute increase (% WT)” value of the first is higher: 21.9 % WT for the first, 15.5 % WT for the second.

Going from B19 to B20, the “Absolute increase (% WT)” value rises from 14.1 % WT to 16.0 % WT.

For B21, the “Absolute increase (% WT)” value was 32.1 % WT.

Same assay, conditions: 10 μM migalastat α-Gal A activity relative to baseline

Going from B1 to B2, the Relative increase falls from 1.4 to 1.3.

Compared with B3, B4 is higher in Relative increase: 3.2 for the first, 5.1 for the second.

Going from B5 to B6, the Relative increase falls from 5.4 to 1.7.

Compared with B7, B8 is higher in Relative increase: 1.4 for the first, 3.1 for the second.

Compared with B9, B10 is higher in Relative increase: 1.3 for the first, 1.4 for the second.

Compared with B11, B12 is higher in Relative increase: 1.4 for the first, 1.6 for the second.

Going from B13 to B14, the Relative increase falls from 3.9 to 1.4.

Compared with B15, B16 is lower in Relative increase: 1.5 for the first, 1.4 for the second.

First: B17
Second: B18
The Relative increase of the first is higher: 1.4 for the first, 1.2 for the second.

Going from B19 to B20, the Relative increase rises from 1.2 to 1.4.

Molecule B21 has a Relative increase of 1.9.

Same assay, conditions: 10 μM migalastat, 5 days; percentage of baseline wild-type α-Gal A activity; mean ± SEM

Going from B1 to B2, the “10 μM migalastat α-Gal A activity (% WT)” value rises from 63.6 ± 4.3 % WT to 101.5 ± 6.1 % WT.

B3 and B4 are within error of each other in “10 μM migalastat α-Gal A activity (% WT)” value: 79.7 ± 5 % WT for the first, 74.4 ± 4.3 % WT for the second.

First: B5
Second: B6
The “10 μM migalastat α-Gal A activity (% WT)” value of the first is lower: 49.6 ± 3.4 % WT for the first, 67.3 ± 3.1 % WT for the second.

Compared with B7, B8 is lower in “10 μM migalastat α-Gal A activity (% WT)” value: 67.8 ± 3.4 % WT for the first, 18.2 ± 2 % WT for the second.

B9 and B10 are within error of each other in “10 μM migalastat α-Gal A activity (% WT)” value: 99.1 ± 5.6 % WT for the first, 89.3 ± 4.2 % WT for the second.

Compared with B11, B12 is lower in “10 μM migalastat α-Gal A activity (% WT)” value: 103.6 ± 10.7 % WT for the first, 80.7 ± 4.8 % WT for the second.

First: B13
Second: B14
The “10 μM migalastat α-Gal A activity (% WT)” value of the first is lower: 30.1 ± 1.7 % WT for the first, 54.1 ± 5.3 % WT for the second.

B15 and B16 are within error of each other in “10 μM migalastat α-Gal A activity (% WT)” value: 85.9 ± 6.3 % WT for the first, 90.9 ± 8.1 % WT for the second.

First: B17
Second: B18
The “10 μM migalastat α-Gal A activity (% WT)” value of the first is lower: 66 ± 4.8 % WT for the first, 77 ± 3.8 % WT for the second.

First: B19
Second: B20
The “10 μM migalastat α-Gal A activity (% WT)” value of the first is higher: 68.7 ± 4.9 % WT for the first, 59.7 ± 2.7 % WT for the second.

For B21, the “10 μM migalastat α-Gal A activity (% WT)” value was 63.1 ± 4.6 % WT.

Same assay, conditions: absence of migalastat; percentage of baseline wild-type α-Gal A activity; mean ± SEM

First: B1
Second: B2
The “Baseline α-Gal A activity (% WT)” value of the first is lower: 46.7 ± 2.7 % WT for the first, 77.4 ± 4.1 % WT for the second.

Going from B3 to B4, the “Baseline α-Gal A activity (% WT)” value falls from 24.1 ± 1.8 % WT to 14.3 ± 1.5 % WT.

Compared with B5, B6 is higher in “Baseline α-Gal A activity (% WT)” value: 9 ± 1 % WT for the first, 38.6 ± 2.5 % WT for the second.

Going from B7 to B8, the “Baseline α-Gal A activity (% WT)” value falls from 49 ± 2.7 % WT to 5.4 ± 0.2 % WT.

Compared with B9, B10 is lower in “Baseline α-Gal A activity (% WT)” value: 79.3 ± 4 % WT for the first, 64.7 ± 3.5 % WT for the second.

Compared with B11, B12 is lower in “Baseline α-Gal A activity (% WT)” value: 75.6 ± 8.4 % WT for the first, 50.9 ± 2.9 % WT for the second.

First: B13
Second: B14
The “Baseline α-Gal A activity (% WT)” value of the first is lower: 7.7 ± 0.7 % WT for the first, 35.1 ± 3.7 % WT for the second.

B15 and B16 are within error of each other in “Baseline α-Gal A activity (% WT)” value: 56 ± 3.1 % WT for the first, 59.6 ± 3.5 % WT for the second.

Compared with B17, B18 is higher in “Baseline α-Gal A activity (% WT)” value: 44.1 ± 2.7 % WT for the first, 61.5 ± 2.9 % WT for the second.

First: B19
Second: B20
The “Baseline α-Gal A activity (% WT)” value of the first is higher: 54.5 ± 4.3 % WT for the first, 43.7 ± 1.7 % WT for the second.

With B21 the “Baseline α-Gal A activity (% WT)” value was 31 ± 2.5 % WT.

Same assay, conditions: lysates of HEK-293 cells transfected with the mutant form, incubated 5 days in the absence of migalastat; mean ± SEM

First: B1
Second: B2
The “Baseline α-Gal A activity” value of the first is lower: 17406 ± 1187 nmol/mg/h for the first, 28269 ± 1306 nmol/mg/h for the second.

Going from B3 to B4, the “Baseline α-Gal A activity” value falls from 9815 ± 1083 nmol/mg/h to 5734 ± 700 nmol/mg/h.

First: B5
Second: B6
The “Baseline α-Gal A activity” value of the first is lower: 3887 ± 487 nmol/mg/h for the first, 14835 ± 1107 nmol/mg/h for the second.

Going from B7 to B8, the “Baseline α-Gal A activity” value falls from 17360 ± 1159 nmol/mg/h to 1906 ± 106 nmol/mg/h.

Compared with B9, B10 is lower in “Baseline α-Gal A activity” value: 31043 ± 2073 nmol/mg/h for the first, 21543 ± 1754 nmol/mg/h for the second.

Compared with B11, B12 is lower in “Baseline α-Gal A activity” value: 22840 ± 1245 nmol/mg/h for the first, 16474 ± 1048 nmol/mg/h for the second.

Going from B13 to B14, the “Baseline α-Gal A activity” value rises from 2573 ± 301 nmol/mg/h to 13634 ± 2705 nmol/mg/h.

B15 and B16 are within error of each other in “Baseline α-Gal A activity” value: 18308 ± 685 nmol/mg/h for the first, 20193 ± 1713 nmol/mg/h for the second.

Compared with B17, B18 is higher in “Baseline α-Gal A activity” value: 15511 ± 1847 nmol/mg/h for the first, 21949 ± 2587 nmol/mg/h for the second.

Compared with B19, B20 is lower in “Baseline α-Gal A activity” value: 19553 ± 2838 nmol/mg/h for the first, 13728 ± 1344 nmol/mg/h for the second.

In the case of B21, the “Baseline α-Gal A activity” value is reported as 11060 ± 1571 nmol/mg/h.

Same assay, conditions: lysates of HEK-293 cells transfected with the mutant form, incubated 5 days with 10 μM migalastat; mean ± SEM

Going from B1 to B2, the “10 μM migalastat α-Gal A activity” value rises from 23415 ± 1710 nmol/mg/h to 37204 ± 2126 nmol/mg/h.

B3 and B4 are within error of each other in “10 μM migalastat α-Gal A activity” value: 31331 ± 2428 nmol/mg/h for the first, 28942 ± 2013 nmol/mg/h for the second.

First: B5
Second: B6
The “10 μM migalastat α-Gal A activity” value of the first is lower: 20888 ± 1527 nmol/mg/h for the first, 25678 ± 1673 nmol/mg/h for the second.

Going from B7 to B8, the “10 μM migalastat α-Gal A activity” value falls from 24097 ± 1695 nmol/mg/h to 5991 ± 499 nmol/mg/h.

Going from B9 to B10, the “10 μM migalastat α-Gal A activity” value falls from 39060 ± 2937 nmol/mg/h to 29402 ± 1960 nmol/mg/h.

First: B11
Second: B12
The “10 μM migalastat α-Gal A activity” value of the first is higher: 31357 ± 1408 nmol/mg/h for the first, 26241 ± 1907 nmol/mg/h for the second.

Going from B13 to B14, the “10 μM migalastat α-Gal A activity” value rises from 10052 ± 825 nmol/mg/h to 19647 ± 3137 nmol/mg/h.

B15 and B16 are within error of each other in “10 μM migalastat α-Gal A activity” value: 27775 ± 1478 nmol/mg/h for the first, 29082 ± 1980 nmol/mg/h for the second.

B17 and B18 are within error of each other in “10 μM migalastat α-Gal A activity” value: 22124 ± 1885 nmol/mg/h for the first, 26457 ± 2512 nmol/mg/h for the second.

B19 and B20 are within error of each other in “10 μM migalastat α-Gal A activity” value: 24298 ± 3201 nmol/mg/h for the first, 19117 ± 2241 nmol/mg/h for the second.

With B21 the “10 μM migalastat α-Gal A activity” value was 21231 ± 2136 nmol/mg/h.
